Test system: Saccharomyces cerevisiae
Test: transcriptional activation domain activity (GFP:mCherry ratio, weighted mean of sorted bins, harmonized to initial dataset scale) (arbitrary fluorescence ratio units); higher = stronger transcriptional activation
Details: beta-estradiol 1 µM; induction time 4 h
Outline: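 Sorting into 8 bins by GFP:mCherry ratio followed a 4-hour hold at 30 °C after cultures were diluted 1:5 into SC with 1 uM beta-estradiol. The yeast diploids carried a GFP reporter and had barcoded protein tiles, fused to an estradiol-inducible synthetic transcription factor, integrated at URA3. Barcodes were then sequenced, and tiles with under 50 reads were removed. Activation activity is the read-weighted mean of bin median fluorescence, averaged across barcodes and linearly mapped onto the initial dataset scale.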

| Sequence | transcriptional activation domain activity |
| --- | --- |
| DQTICAEVMRCCESNVVAFRRLVHMIQIQLRNIGIMADIRLVRNLVLVLHGAL | 62000 |
| AAPAAAAAQAAAPVSPAVKAETPVEAPKTIPAAAAPAPAPAKTEAAPAAEPVA | 27500 |
| VFTSLHTCRFAAPHLWWLIFSILCLQYLIILEVFVIAMLVFIIGPLIYLFWNI | 42600 |
| ALLCLCWAPEPRGLLALGIGCLVFLFLYFYPCCFFFFFFYSYLCFCTVVLFFP | 53300 |
| NIPIESSWHLFTNYVGLDIKQIVLLGKSLHYFNPGFLLHVNLFNWLWPKIVQL | 63300 |
| SEIALSSSTHSLRLYGKSVGGGKVAGMVRMAYSAKSGVTVKVSVRSEEGGLAG | 37500 |
| IGKVTSAGLMSKTVRVDRPVQEWHNYLRKFYKSSKHYLVHDPANSLRTGDMIS | 69800 |
| LSSSPSSQSASSTSTVLVVGTDDKKVKEAGDELKSKLGVKGGGKGPRWSGKFT | 23800 |
| MVTVGILHYLLIGNLLTNVLFGVYVQMAWKCSCIFYRKYQMGQVHSYHLFSFI | 80900 |
| MPKLNLYKIFLSILCSVVILVVWFPNLESILLLRVLVFHLVKYIGLCLLFFLC | 56000 |
| VCLNLLGGVVVCYCPGLLVIAAIEAPIRFKHIFTCSIHIHSLYLRLLFCALHA | 69200 |
| MGFSIDRAIELIWNLLYFFFLSSFLHIFLGLSWDMIICWNYFLSLFILLVFSS | 62600 |
| SIILLCLPAAYFLFNIFSVGLLSLGFSHRLIPGIPRLRRYIFVPGVFLYIFAR | 54300 |
| EAPAPVEEQPVQEPEPEAIPEPEPVPQETPQAYEEPPAPEPKPAPTPKAQPVQ | 23300 |
| IGETDAKAKKEKKEKKGKKAQEGAVVAETVDGGEEKKKKKKSKAKGETTADSM | 35100 |
| LNYRKDIDAWHKSLMGTLARGPTLWTFWILSCLDKECFWNWQCYLGYMWPGLF | 72100 |
| MGGCICLRWSCVNVFFSFVYSFGLACCFTSWEYGGVYLGEGGCFLFYLSFFFL | 50500 |
| AIEQFLDNLISQDMMSSNASMNSESHLHIRSPKKQHRYTELNQRYPETHPHSN | 8240 |
| MEGYELRMVALLLFSLLFVVAKKRGVHTNPSRLAVFVVLLRLCFVFCCLLFLA | 85000 |

| Sequence | transcriptional activation domain activity |
| --- | --- |
| VIVIVMLFFLFYFNRLLGFVISKIVSYWTWKLYSAHIEIESIKFALLGGRISF | 55200 |
| GGAAAKESESKSSASTSKASISKGKDEQGAGASGGNKKGGGGKATTKRGRKKG | 29400 |
| MELSFFSVSSDGDLFFLLLFLIRGVLEKYFFDWYFDLPLWVFVCFFLFVFLTL | 54600 |
| DIDEQRLQLYGVQIQIFLFVVMLYIFGCNLVIASKMVVLQPRNMVSWCCLIPS | 46800 |
| SLRVDTSVTCCKLRSFSHIVTSYIEVLFLLKILREFLYADLFVHIWLALSLLA | 62700 |
| LQLAFYFGFIMVFVCSYMKRNTLVLLLFLLNNLCMVFRFYASDLLYQYWLIPV | 61800 |
| KFANNVSEMKKLGARDFEDILQNLIPVVDGLLDEPYNSWILTLLFRLAEWHAL | 42400 |
| MIPFQTGQVMGMLNRIDRLPLKEILTYAMPYLLEKTNVSMIIRQYLWSTLGNH | 44100 |
| LHGSIHEGLCRMLINIFIENLVLKEDVLLALCIQVLFPKEYITKGLMDAIKKD | 13900 |
| CQRQWADRVQMTLRQMYDLLLIEITRPRYSVFLTSGHSMEEMASVFRLIACIA | 44400 |
| TMWHCMDLLFCVAPGRLIRETASGLYVHHCFECGTKLEPQPLHSLTITAYHLA | 52300 |
| LRRGFSKLLLIDDLYVLDKHLRSDRLRDLLWSAYVRAIVPRLCLIAFNFCQPF | 60800 |
| QFSWNVCFMVFLFLFLFLFLCFVCFTLLCLSKMLHNVLHYNFILCFLSSFCFV | 52400 |
| MYMIFINPLLLMIILYIKLLPLMFPLLINLLILLIFLLYIHLLSIVFLQKFYI | 60100 |
| LFCFLHYNLLPLPLLLYHLLLAHHILLQLNLDPFLPLLPLLPFLPLLFLLCHL | 36000 |
| WCVVLCMVLILPRLFYTILQMNDYNISPFNPNVNALYTSLLGYLPLLAVFIVM | 53800 |
| RYWTFMTFLSIFLSIFACFLWIAVYSLFPTFFFDWELIILYSTMNFWATVVVV | 51700 |
| IAQRLEILIYSHIVCIPLIASFSCLSWIFWMEYYFAWWFDSVITIRDINWHML | 36500 |

— the supplement of paper PMC12636428
